The chains are these.
T1: human CEACAM5 on cells (human, UniProt P06731 35-685)
T1 sequence: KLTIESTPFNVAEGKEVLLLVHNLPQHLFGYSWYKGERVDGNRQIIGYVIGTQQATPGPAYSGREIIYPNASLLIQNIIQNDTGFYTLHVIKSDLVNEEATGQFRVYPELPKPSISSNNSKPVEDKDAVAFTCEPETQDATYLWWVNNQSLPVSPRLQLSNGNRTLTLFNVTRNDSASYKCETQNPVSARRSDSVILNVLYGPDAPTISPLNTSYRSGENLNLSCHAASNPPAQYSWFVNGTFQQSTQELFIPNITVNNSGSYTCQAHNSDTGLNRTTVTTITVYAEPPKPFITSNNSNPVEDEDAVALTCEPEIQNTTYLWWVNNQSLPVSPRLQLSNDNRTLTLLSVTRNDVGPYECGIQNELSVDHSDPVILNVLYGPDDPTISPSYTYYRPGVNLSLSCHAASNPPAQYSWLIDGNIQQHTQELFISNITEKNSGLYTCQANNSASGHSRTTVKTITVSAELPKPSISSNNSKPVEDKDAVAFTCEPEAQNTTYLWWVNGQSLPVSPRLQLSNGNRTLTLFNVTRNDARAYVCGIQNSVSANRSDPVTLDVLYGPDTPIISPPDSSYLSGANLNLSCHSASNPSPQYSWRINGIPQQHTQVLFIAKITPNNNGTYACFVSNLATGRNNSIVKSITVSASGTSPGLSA

T2: full-length human CEACAM5 (recombinant, internally generated) (human, UniProt P06731 35-685, limits assumed)
T2 construct: Printed only as 'full-length'; also called Full-length huCEACAM5; biotinylated human CEACAM5
T2 sequence: T1 sequence

B1: MBP004 (antibody, V domains shown)
VH: QVQLVESGGGVVQPGRSLRLSCAASGITFSSHGMHWVRQAPGKGLEWVTFISYDGSYKSYVDSVKGRFTISRDNSKNTLYLQMNSLRAEDTAVYYCATGLTGTGAFDIWGQGTMVTVSS
VL: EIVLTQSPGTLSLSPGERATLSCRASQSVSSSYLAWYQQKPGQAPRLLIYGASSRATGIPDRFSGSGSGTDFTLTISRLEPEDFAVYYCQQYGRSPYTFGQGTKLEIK
B2: MBP009 (antibody, IgG1, V domains shown)
VH: B1 VH with T28Y
VL: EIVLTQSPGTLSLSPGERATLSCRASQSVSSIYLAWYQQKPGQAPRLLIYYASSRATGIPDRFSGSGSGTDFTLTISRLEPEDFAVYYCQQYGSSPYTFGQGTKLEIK
B3: MBP011 (antibody, IgG1, V domains shown)
VH: B1 VH with Y57I
VL: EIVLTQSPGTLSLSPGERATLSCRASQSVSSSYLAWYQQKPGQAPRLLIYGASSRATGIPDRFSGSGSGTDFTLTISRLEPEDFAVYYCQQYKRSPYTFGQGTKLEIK
B4: MBP006 (antibody, V domains shown)
VH: B1 VH with K58I, F106N
VL: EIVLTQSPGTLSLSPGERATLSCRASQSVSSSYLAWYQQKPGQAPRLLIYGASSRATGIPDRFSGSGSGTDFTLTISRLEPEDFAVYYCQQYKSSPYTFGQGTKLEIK
B5: MBP005 (antibody, V domains shown)
VH: B1 VH with T28Y
VL: not shown
B6: MBP010 (antibody, IgG1, V domains shown)
VH: B1 VH with G55S
VL: EIVLTQSPGTLSLSPGERATLSCRASQSVSSSYLAWYQQKPGQAPRLLIYGASSRATGIPDRFSGSGSGTDFTLTISRLEPEDFAVYYCQQNKRSPYTFGQGTKLEIK
B7: MBP007 (antibody, IgG1, V domains shown)
VH: B1 VH with T28Y, F106N
VL: B6 VL with R94P
B8: MBP008 (antibody, IgG1, V domains shown)
VH: B1 VH with G104N, F106L
VL: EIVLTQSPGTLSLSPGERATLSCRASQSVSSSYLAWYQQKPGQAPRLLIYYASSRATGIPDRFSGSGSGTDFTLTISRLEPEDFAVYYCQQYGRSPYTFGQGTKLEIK

Residue numbers refer to the chain shown, from its start.

A word on the Kd: it is the free concentration of one partner at which half of the binding sites on the other are occupied at equilibrium, for simple one-to-one binding. As a reminder, the koff is a measure of how fast the partners let go of each other. Broadly, the kon is the rate constant with which the complex forms.

For one test, the target named is T1, human CEACAM5 on cells. Kind of test: cell-based or functional assay.
Regarding B1, the “Ls174T 5-day cytotoxicity (AUC)” value amounted to 865 and the “MKN45 5-day cytotoxicity (AUC)” value amounted to 2380.
For B2, the “Ls174T 5-day cytotoxicity (AUC)” value worked out at 1040 and the “MKN45 5-day cytotoxicity (AUC)” value amounted to 2200.
Take B3: the “Ls174T 5-day cytotoxicity (AUC)” value is 939 and the “MKN45 5-day cytotoxicity (AUC)” value came to 1770.
B4: the “Ls174T 5-day cytotoxicity (AUC)” value stood at 902 and the “MKN45 5-day cytotoxicity (AUC)” value turned out to be 2440.
As for B5, the “Ls174T 5-day cytotoxicity (AUC)” value came to 964 and the “MKN45 5-day cytotoxicity (AUC)” value was found to be 2350.
Take B6: the “Ls174T 5-day cytotoxicity (AUC)” value came out at 910 and the “MKN45 5-day cytotoxicity (AUC)” value turned out to be 1360.
Regarding B7, the “Ls174T 5-day cytotoxicity (AUC)” value worked out at 834 and the “MKN45 5-day cytotoxicity (AUC)” value was 2070.
As to B8, the “Ls174T 5-day cytotoxicity (AUC)” value came to 1140 and the “MKN45 5-day cytotoxicity (AUC)” value was determined as 2200.

Another test addresses T2, full-length human CEACAM5 (recombinant, …). Put plainly: SPR Biacore, mAb captured on anti-human Fc, full-length antigen analyte, 1:1 fit. The source says:
The BIACORE® instrument was primed with 1×HBSP+ running buffer (Cytiva catalog no. BR100671). The CM5 chip (Cytiva catalog no. 29149604) was equilibrated to room temperature, and the BIACORE® instrument was re-primed. A human antibody Fc capture kit (Cytiva catalog no. 29234600) was utilized for this analysis. The human antibody Fc capture reagent was immobilized to both flow cells in all 8 flow channels of the CM5 chip via amine-coupling using the following conditions. Immobilization was performed at a temperature of 25° C. The anti-human Fc capture reagent was diluted to a concentration of 25 μg/mL in acetate pH5 buffer. The chip surface was activated by injecting a mixture of 1-ethyl-3-(-3-dimethylaminopropyl) carbodiimide hydrochloride (EDC) and N-hydroxy succinimide (NHS) for 420 seconds at a rate of 10 microliters per minute (uL/min). A concentration (25 ug/mL) of anti-human Fc capture reagent was then injected on the surface for 420 seconds at a rate of 10 uL/min. The remaining chip surface was blocked by injecting ethanolamine for 420 seconds at a rate of 10 uL/min.
The SPR kinetics against full-length human and cyno CEACAM5 were set up as follows. The antibody capture was performed by diluting the antibodies to a concentration of 10 nM in HBSP+ buffer. The 10 nM mAbs were captured for 20 seconds at 5 uL/min to achieve capture levels of approximately 100 RU. […] The association rate was 180 seconds at 30 uL/min. The dissociation rate was 600 seconds at 30 uL/min. Regeneration was performed using two injections of 3M magnesium chloride MgCl₂ for 30 seconds at 30 uL/min. A data fit was performed using a 1:1 binding model with global Rmax. Rmax reflects the maximal response when all ligand is occupied.
Consider B1, for which the Kd came to 17.3 nM, the koff turned out to be 0.00131 s⁻¹ and the kon amounted to 76000 M⁻¹ s⁻¹.
Taken in the same sequence, the figures for B2 were 2.78 nM, 0.00048 s⁻¹ and 172000 M⁻¹ s⁻¹.
As to B3, the Kd turned out to be 14.2 nM, the koff turned out to be 0.000671 s⁻¹ and the kon stood at 47100 M⁻¹ s⁻¹.
For the molecule B4, the Kd came to 6.03 nM, the koff stood at 0.000513 s⁻¹ and the kon came to 85100 M⁻¹ s⁻¹.
Regarding B6, the Kd came to 20.4 nM, the koff came out at 0.00102 s⁻¹ and the kon came to 50000 M⁻¹ s⁻¹.
As to B7, the Kd turned out to be 21.5 nM, the koff came to 0.00171 s⁻¹ and the kon turned out to be 79600 M⁻¹ s⁻¹.
In the same order, the values of B8 are 5.91 nM, 0.000527 s⁻¹ and 89200 M⁻¹ s⁻¹.

The values are drawn from patent publication US20260207766A1 (Bristol-Myers Squibb, published 2026).
